Source: patent US20220204611A1 (Amgen, published 2022)
Where a chain is given by its changes, count along the chain named.

T1: human TREM2 (human, UniProt Q9NZC2 19-174, limits assumed)
T1 sequence: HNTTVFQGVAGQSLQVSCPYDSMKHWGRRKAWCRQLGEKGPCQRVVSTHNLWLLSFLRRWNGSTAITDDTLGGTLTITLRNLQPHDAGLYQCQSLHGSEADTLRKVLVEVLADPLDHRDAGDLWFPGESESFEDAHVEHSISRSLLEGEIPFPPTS

B1: V31 (Fab, V domains shown)
VH: EVQLVQSGAEVKKPGESLKISCKGSGYSFTSYWIAWVRQMPGKGLEWMGIIYPGDSETRYSPSFQGQVTISADKSISTAYLQWSSLKASDTAMYFCARQRTFYYDSSDYFDYWGQGTLVTVSS
VL: DIQMTQSPSSVSASVGDRVTITCRASQGISSWLAWYQQKPGKAPKLLIYAASSLQNGVPSRFSGSGSGTDFTLTISSLQPEDFATYFCQQADSFPRTFGQGTKLEIK
B2: V93 (Fab, V domains shown)
VH: B1 VH with E57D
VL: B1 VL with S31G
B3: V34 (Fab, V domains shown)
VH: B1 VH with E57D
VL: B1 VL with N56D
B4: V56 (Fab, V domains shown)
VH: B1 VH with E57D, S61Q
VL: B1 VL
B5: V94 (Fab, V domains shown)
VH: B1 VH with E57D
VL: B1 VL with S52A
B6: V32 (Fab, V domains shown)
VH: B1 VH with E57D, P62N
VL: B1 VL
B7: V71 (Fab, V domains shown)
VH: B1 VH with E57D
VL: B1 VL with F94E
B8: V68 (Fab, V domains shown)
VH: B1 VH with E57D, Y103R
VL: B1 VL
B9: V79 (Fab, V domains shown)
VH: B1 VH with E57D, R59N
VL: B1 VL
B10: V44 (Fab, V domains shown)
VH: B1 VH with G54S, E57D
VL: B1 VL
B11: V67 (Fab, V domains shown)
VH: B1 VH with I50M, E57D
VL: B1 VL
B12: V90 (Fab, V domains shown)
VH: B1 VH with Y32E, E57D
VL: B1 VL with S31R
B13: V43 (Fab, V domains shown)
VH: B1 VH with E57G
VL: B1 VL
B14: V69 (Fab, V domains shown)
VH: B1 VH with E57D
VL: B1 VL with W32Y
B15: V70 (Fab, V domains shown)
VH: B1 VH with E57D
VL: B1 VL with S52G
B16: V81 (Fab, V domains shown)
VH: B1 VH with E57D
VL: B1 VL with W32L
B17: V45 (Fab, V domains shown)
VH: B1 VH with E57D
VL: B1 VL with W32F
B18: V66 (Fab, V domains shown)
VH: B1 VH with Y27T, E57D
VL: B1 VL
B19: V91 (Fab, V domains shown)
VH: B1 VH with G54D, E57D
VL: B1 VL
B20: V80 (Fab, V domains shown)
VH: B1 VH with E57D, T101N
VL: B1 VL
B21: V78 (Fab, V domains shown)
VH: B1 VH with S28R, E57D
VL: B1 VL
B22: V57 (Fab, V domains shown)
VH: B1 VH with E57D
VL: B1 VL with R24A
B23: V55 (Fab, V domains shown)
VH: B1 VH with E57D, R59I, F64H
VL: B1 VL
B24: V42 (Fab, V domains shown)
VH: B1 VH with Y32A, E57D
VL: B1 VL
B25: V35 (Fab, V domains shown)
VH: B1 VH with E57D
VL: B1 VL with D92Y
B26: V46 (Fab, V domains shown)
VH: B1 VH with E57D
VL: B1 VL with S53T
B27: V58 (Fab, V domains shown)
VH: B1 VH with E57D
VL: B1 VL with A50K
B28: V59 (Fab, V domains shown)
VH: B1 VH with E57D
VL: B1 VL with Q89M
B29: V92 (Fab, V domains shown)
VH: B1 VH with E57D, Y103H
VL: B1 VL
B30: V47 (Fab, V domains shown)
VH: B1 VH with E57D
VL: B1 VL with R96M
B31: V83 (Fab, V domains shown)
VH: B1 VH with E57D
VL: B1 VL with D92V
B32: V82 (Fab, V domains shown)
VH: B1 VH with E57D
VL: B1 VL with A51G
B33: V33 (Fab, V domains shown)
VH: B1 VH with E57D, Y104G
VL: B1 VL
B34: V54 (Fab, V domains shown)
VH: B1 VH with Y32Q, E57D
VL: B1 VL

These binders were tested against T1, human TREM2 (assay: yeast-displayed Fab FACS, 1st screen 110 nM).

Binder | binding signal fold over 6E7 parental [fold]
B1 | 0.61
B2 | 0.35
B3 | 0.34
B4 | 0.23
B5 | 0.31
B6 | 0.82
B7 | 0.37
B8 | 0.44
B9 | 0.7
B10 | 0.65
B11 | 0.8
B12 | 0.33
B13 | 0.2
B14 | 0.41
B15 | 0.79
B16 | 0.17
B17 | 0.43

Binder | binding signal fold over 6E7 parental [fold]
B18 | 0.25
B19 | 0.25
B20 | 0.59
B21 | 0.86
B22 | 0.84
B23 | 0.24
B24 | 0.45
B25 | 0.21
B26 | 0.83
B27 | 0.28
B28 | 0.19
B29 | 0.22
B30 | 0.42
B31 | 0.2
B32 | 0.3
B33 | 0.23
B34 | 0.55

The binders below were run against T1, human TREM2 (assay: yeast-displayed Fab FACS, 2nd screen 100 nM).

Binder | binding signal fold over 6E7 parental [fold]
B1 | 0.73
B2 | 1.05
B3 | 1.02
B4 | 0.59
B5 | 0.87
B6 | 0.89
B7 | 0.48
B8 | 0.43
B9 | 0.52
B10 | 0.52
B11 | 0.84
B12 | 0.36
B13 | 0.33
B14 | 0.4
B15 | 0.84
B16 | 0.23
B17 | 0.53

Binder | binding signal fold over 6E7 parental [fold]
B18 | 0.74
B19 | 0.61
B20 | 0.5
B21 | 1.11
B22 | 0.85
B23 | 0.66
B24 | 0.41
B25 | 0.29
B26 | 0.96
B27 | 0.68
B28 | 0.6
B29 | 0.65
B30 | 0.47
B31 | 0.29
B32 | 0.79
B33 | 0.34
B34 | 0.54
